One molecule from patent publication US9364516B2, “Treatment of fibrosis-related disorders using fibronectin binding proteins and polypeptides” (priority 2010, dated 2016) can be followed below.

One data set has as its system Mouse carotid arteries. The experiment in a line: qRT-PCR of fibronectin and collagen I in carotid arteries after ligation. The settings on record: III-11C set equal to 1, mean ± s.e.m., 3 arteries. In kind it is in vivo. The method, then:
mRNA was isolated from RASMs 24 hours after incubation with 500 nM pUR4 or III-11C control peptides using RNAzol as per the manufacturer's instructions (Invitrogen). cDNA was prepared using a Superscript First Strand cDNA kit as per the manufacturer's instructions (Invitrogen). Mouse carotid arteries were harvested and frozen in liquid nitrogen. RNA was isolated using Trizol and purified using a QIAgen RNeasy Micro Kit. RNA integrity was examined with an Agilent 2100 Bioanalyser using RNA6000 NanoAssay (Agilent Technology). Whole transcriptome amplification was performed using Qiagen's QuantiTect Whole Transcriptome Amplification Kit. Quantitative RT-PCR analyses were performed using ABI Prism 7900HT sequence detection system (Applied Biosystems). The qRT-PCR primers for 3 mouse genes were obtained from ABI: GADPH (4352932E), fibronectin (Mm01256744_m1), and collagen Ia1 (Mm00801666_g1). TaqMan probe chemistry was used according to the manufacturer's instructions. qRT-PCR reactions were run in triplicate for each sample. The data was normalized to the levels of GAPDH in each sample, and the results were averaged.
Blood flow in the left carotid artery of 10-week-old FVB/NJ (FVB) mice was reduced by ligating the external and internal carotid arterial branches as described (Korshunov et al., “Flow-Induced Vascular Remodeling in the Mouse: A Model for Carotid Intima-Media Thickening,” Arterioscler. Thromb. Vasc. Biol. 23:2185-2191 (2003), which is hereby incorporated by reference in its entirety). Mice were anesthetized with an intraperitoneal injection of ketamine (80 mg/kg) and xylazine (5 mg/kg) as described in the above-cited referenced. The left common carotid artery was dissected free of the surrounding connective tissue and 50 μL of F-127 pluronic gel (BASF) containing 20 μmol/L pUR4 or III-11C was applied around the carotid artery. Animals were separated into 5 groups containing 5 to 10 animals each: (1) sham-operated, in which the branches of the left carotid artery were exposed and dissected out, but not ligated; (2) ligation; (3) ligation with pluronic gel; (4) ligation with pluronic gel containing III-11C; (5) ligation with pluronic gel containing pUR4.

Data set [1] deals with fibronectin matrix assembly. The experiment in a line: Inhibition of fibronectin matrix assembly in cell culture. The format is cell-based. Conditions: cell culture experiments.
Data set [2] concerns fibronectin binding to the cell surface. Briefly: Inhibition of fibronectin binding to the cell surface. In kind it is cell-based.
Another data set relates to mice. The experiment in a line: Dimethylnitrosamine (DMN) induced liver fibrosis. In kind it is in vivo, mouse. The protocol: Collagen content in the liver of mice was measured by quantitating hydroxyproline levels (FIG. 17A). Treatment groups were DMN treated mice that were post treated with pUR4 or control III-11C peptide, DMN without peptide, and saline treated control mice. Fibronectin content in the liver of mice was assessed by immunohistochemistry of liver sections using a fibronectin antibody (FIG. 17B). Inflammatory cell infiltration into the liver was assessed by quantitating the CD45 positive cells per unit area (FIG. 17C). Sequential model (FIGS. 17A, 17B); Simultaneous model (FIG. 17C). n=3 in each group.
Liver fibrosis was induced in mice by administration of dimethylnitrosamine (DMN) for 4 weeks as previously described (Yoshida et al., “SOCS1 is a Suppressor of Liver Fibrosis and Hepatitis-Induced Carcinogenesis,” J. Exp. Med. 199:1701-1707 (2004)). This is a well established model of liver fibrosis and some of the key pathological features that develop in DMN induced fibrosis are similar to those seen in humans with liver fibrosis (Wu et al., “Animal Models of Liver Fibrosis,” Scand. J. Gastroenterol. 31:1137-1143 (1996); Jenkins et al., “A Dimethylnitrosamine-Induced Model of Cirrhosis and Portal Hypertension in the Rat,” J. Hepatol. 1:489-499 (1985), which are hereby incorporated by reference in their entirety). pUR4 was either administered for the last 10 days of DMN treatment (simultaneous treatment regimen), or for 14 days following cessation of DMN treatment (sequential treatment regimen). The latter model was performed to determine whether the peptide is effective when administered after fibrosis is established.
Dimethylnitrosamine (DMN) will be used to induce liver injury and fibrosis in mice (10 mg/kg body weight, 3×/week for 4 weeks) as described in Example 16. The experimental groups will include: 1) DMN alone; 2) DMN+pUR4 peptide; and 3) DMN+control peptide. Non DMN-treated control animals will receive i.p. injections of 0.9% saline plus: 4) pUR4; or 5) the control peptide. Two treatment strategies will be used, as described in Example 16. In the simultaneous treatment strategy, peptides will be administered daily during the last 10 days of DMN treatment. This will allow assessment of pUR4 on preventing fibrosis development. In the sequential treatment strategy, DMN will be injected for 4 weeks. Peptides will then be administered daily for 14 days in the absence of DMN. This will allow assessment of pUR4 on preventing fibrosis progression.

Setting [3] is: animals treated in the absence of injury for up to 2 weeks.
The mark [4] stands for this setting: sequential treatment: 14 days following cessation of DMN, 20 mg/kg/d.

B1: pUR4: 49-mer peptide derived from the bacterial F1 adhesin, His tagged, SEQ ID NO:1; class I fibronectin polymerization inhibitor (peptide)
chain: MRGSHHHHHHGSKDQSPLAGESGETEYITEVYGNQQNPVDIDKKLPNETGFSGNMVETEDTKLN
modifications: His tag; Bacterial adhesin derived peptide pUR4
On to B1, for which, in the data set with Mouse carotid arteries (4 days post surgery), the “Col Ia1 mRNA, relative level, Day 4” value was 0.60 ± 0.30 and the “Fibronectin mRNA, relative level, Day 4” value is given as 0.70 ± 0.23. In the data set on Mouse carotid arteries (7 days post surgery), the “Col Ia1 mRNA, relative level, Day 7” value was found to be 0.58 ± 0.36 and the “Fibronectin mRNA, relative level, Day 7” value is recorded as 0.41 ± 0.23. In addition, the “concentration effective at inhibiting fibronectin matrix assembly” value in data set [1] was in the range of 50 to 100 nM. The molecule also returned an EC50 in data set [2] of 10 nM. In the data set with mice (setting [3]), the adverse effects entry was “do not show any adverse effects” and the “decrease in the normal levels of ECM fibronectin or collagen I” value was “do not show”. Moreover, the “inflammation in the liver” value in the data set on mice (sequential treatment model) is “trend towards reduced”. Further, in the data set on mice (setting [4]), the “collagen I content in the liver (hydroxyproline)” value is reported as “reduced” and the “fibronectin content in the liver” value is on record as “reduced”. Moreover, the “infiltration of immune cells (CD45) into the liver” value in the data set with mice (simultaneous treatment regimen) was “significantly reduced”.
